# B1: MCCB_HUMAN (protein, UniProt Q9HCC0 23-563, looked up)
# Methylcrotonoyl-CoA …: YHGDSVASLGTQPDLGSALYQENYKQMKALVNQLHERVEHIKLGGGEKARALHISRGKLLPRERIDNLIDPGSPFLELSQFAGYQLYDNEEVPGGGIITGIGRVSGVECMIIANDATVKGGAYYPVTVKKQLRAQEIAMQNRLPCIYLVDSGGAYLPRQADVFPDRDHFGRTFYNQAIMSSKNIAQIAVVMGSCTAGGAYVPAMADENIIVRKQGTIFLAGPPLVKAATGEEVSAEDLGGADLHCRKSGVSDHWALDDHHALHLTRKVVRNLNYQKKLDVTIEPSEEPLFPADELYGIVGANLKRSFDVREVIARIVDGSRFTEFKAFYGDTLVTGFARIFGYPVGIVGNNGVLFSESAKKGTHFVQLCCQRNIPLLFLQNITGFMVGREYEAEGIAKDGAKMVAAVACAQVPKITLIIGGSYGAGNYGMCGRAYSPRFLYIWPNARISVMGGEQAANVLATITKDQRAREGKQFSSADEAALKEPIIKKFEEEGNPYYSSARVWDDGIIDPADTRLVLGLSFSAALNAPIEKTDFGIFRM
# B2: CH60_HUMAN (protein, UniProt P10809 27-573, looked up)
# 60 kDa heat shock protein, …: AKDVKFGADARALMLQGVDLLADAVAVTMGPKGRTVIIEQSWGSPKVTKDGVTVAKSIDLKDKYKNIGAKLVQDVANNTNEEAGDGTTTATVLARSIAKEGFEKISKGANPVEIRRGVMLAVDAVIAELKKQSKPVTTPEEIAQVATISANGDKEIGNIISDAMKKVGRKGVITVKDGKTLNDELEIIEGMKFDRGYISPYFINTSKGQKCEFQDAYVLLSEKKISSIQSIVPALEIANAHRKPLVIIAEDVDGEALSTLVLNRLKVGLQVVAVKAPGFGDNRKNQLKDMAIATGGAVFGEEGLTLNLEDVQPHDLGKVGEVIVTKDDAMLLKGKGDKAQIEKRIQEIIEQLDVTTSEYEKEKLNERLAKLSDGVAVLKVGGTSDVEVNEKKDRVTDALNATRAAVEEGIVLGGGCALLRCIPALDSLTPANEDQKIGIEIIKRTLKIPAMTIAKNAGVEGSLIVEKIMQSSSEVGYDAMAGDFVNMVEKGIIDPTKVVRTALLDAAGVASLLTTAEVVVTEIPKEEKDPGMGAMGGMGGGMGGGMF
# B3: ODBA_HUMAN (protein, UniProt P12694 46-445, looked up)
# 2-oxoisovalerate …: SSLDDKPQFPGASAEFIDKLEFIQPNVISGIPIYRVMDRQGQIINPSEDPHLPKEKVLKLYKSMTLLNTMDRILYESQRQGRISFYMTNYGEEGTHVGSAAALDNTDLVFGQYREAGVLMYRDYPLELFMAQCYGNISDLGKGRQMPVHYGCKERHFVTISSPLATQIPQAVGAAYAAKRANANRVVICYFGEGAASEGDAHAGFNFAATLECPIIFFCRNNGYAISTPTSEQYRGDGIAARGPGYGIMSIRVDGNDVFAVYNATKEARRRAVAENQPFLIEAMTYRIGHHSTSDDSSAYRSVDEVNYWDKQDHPISRLRHYLLSQGWWDEEQEKAWRKQSRRKVMEAFEQAERKPKPNPNLLFSDVYQEMPAQLRKQQESLARHLQTYGEHYPLDHFDK
# B4: PDIP3_HUMAN (protein, UniProt Q9BY77 2-421, looked up)
# Polymerase delta-interacting …: ADISLDELIRKRGAAAKGRLNARPGVGGVRSRVGIQQGLLSQSTRTATFQQRFDARQKIGLSDARLKLGVKDAREKLLQKDARFRIKGKVQDAREMLNSRKQQTTVPQKPRQVADAREKISLKRSSPAAFINPPIGTVTPALKLTKTIQVPQQKAMAPLHPHPAGMRINVVNNHQAKQNLYDLDEDDDGIASVPTKQMKFAASGGFLHHMAGLSSSKLSMSKALPLTKVVQNDAYTAPALPSSIRTKALTNMSRTLVNKEEPPKELPAAEPVLSPLEGTKMTVNNLHPRVTEEDIVELFCVCGALKRARLVHPGVAEVVFVKKDDAITAYKKYNNRCLDGQPMKCNLHMNGNVITSDQPILLRLSDSPSMKKESELPRRVNSASSSNPPAEVDPDTILKALFKSSGASVTTQPTEFKIKL
# B5: TCPD_HUMAN (protein, UniProt P50991 2-539, looked up)
# T-complex protein 1 subunit …: PENVAPRSGATAGAAGGRGKGAYQDRDKPAQIRFSNISAAKAVADAIRTSLGPKGMDKMIQDGKGDVTITNDGATILKQMQVLHPAARMLVELSKAQDIEAGDGTTSVVIIAGSLLDSCTKLLQKGIHPTIISESFQKALEKGIEILTDMSRPVELSDRETLLNSATTSLNSKVVSQYSSLLSPMSVNAVMKVIDPATATSVDLRDIKIVKKLGGTIDDCELVEGLVLTQKVSNSGITRVEKAKIGLIQFCLSAPKTDMDNQIVVSDYAQMDRVLREERAYILNLVKQIKKTGCNVLLIQKSILRDALSDLALHFLNKMKIMVIKDIEREDIEFICKTIGTKPVAHIDQFTADMLGSAELAEEVNLNGSGKLLKITGCASPGKTVTIVVRGSNKLVIEEAERSIHDALCVIRCLVKKRALIAGGGAPEIELALRLTEYSRTLSGMESYCVRAFADAMEVIPSTLAENAGLNPISTVTELRNRHAQGEKTAGINVRKGGISNILEELVVQPLLVSVSALTLATETVRSILKIDDVVNTR
# B6: SYYM_HUMAN (protein, UniProt Q9Y2Z4 17-477, looked up)
# Tyrosine--tRNA ligase, …: TLNLSVLLPLGLRKAHSGAQGLLAAQKARGLFKDFFPETGTKIELPELFDRGTASFPQTIYCGFDPTADSLHVGHLLALLGLFHLQRAGHNVIALVGGATARLGDPSGRTKEREALETERVRANARALRLGLEALAANHQQLFTDGRSWGSFTVLDNSAWYQKQHLVDFLAAVGGHFRMGTLLSRQSVQLRLKSPEGMSLAEFFYQVLQAYDFYYLFQRYGCRVQLGGSDQLGNIMSGYEFINKLTGEDVFGITVPLITSTTGAKLGKSAGNAVWLNRDKTSPFELYQFFVRQPDDSVERYLKLFTFLPLPEIDHIMQLHVKEPERRGPQKRLAAEVTKLVHGREGLDSAKRCTQALYHSSIDALEVMSDQELKELFKEAPFSEFFLDPGTSVLDTCRKANAIPDGPRGYRMITEGGVSINHQQVTNPESVLIVGQHILKNGLSLLKIGKRNFYIIKWLQL
# B7: ASNS_HUMAN (protein, UniProt P08243 2-561, looked up)
# Asparagine synthetase …: CGIWALFGSDDCLSVQCLSAMKIAHRGPDAFRFENVNGYTNCCFGFHRLAVVDPLFGMQPIRVKKYPYLWLCYNGEIYNHKKMQQHFEFEYQTKVDGEIILHLYDKGGIEQTICMLDGVFAFVLLDTANKKVFLGRDTYGVRPLFKAMTEDGFLAVCSEAKGLVTLKHSATPFLKVEPFLPGHYEVLDLKPNGKVASVEMVKYHHCRDVPLHALYDNVEKLFPGFEIETVKNNLRILFNNAVKKRLMTDRRIGCLLSGGLDSSLVAATLLKQLKEAQVQYPLQTFAIGMEDSPDLLAARKVADHIGSEHYEVLFNSEEGIQALDEVIFSLETYDITTVRASVGMYLISKYIRKNTDSVVIFSGEGSDELTQGYIYFHKAPSPEKAEEESERLLRELYLFDVLRADRTTAAHGLELRVPFLDHRFSSYYLSLPPEMRIPKNGIEKHLLRETFEDSNLIPKEILWRPKEAFSDGITSVKNSWFKILQEYVEHQVDDAMMANAAQKFPFNTPKTKEGYYYRQVFERHYPGRADWLSHYWMPKWINATDPSARTLTHYKSAVKA
# B8: ERP44_HUMAN (protein, UniProt Q9BS26 30-406, looked up)
# Endoplasmic reticulum …: EITSLDTENIDEILNNADVALVNFYADWCRFSQMLHPIFEEASDVIKEEFPNENQVVFARVDCDQHSDIAQRYRISKYPTLKLFRNGMMMKREYRGQRSVKALADYIRQQKSDPIQEIRDLAEITTLDRSKRNIIGYFEQKDSDNYRVFERVANILHDDCAFLSAFGDVSKPERYSGDNIIYKPPGHSAPDMVYLGAMTNFDVTYNWIQDKCVPLVREITFENGEELTEEGLPFLILFHMKEDTESLEIFQNEVARQLISEKGTINFLHADCDKFRHPLLHIQKTPADCPVIAIDSFRHMYVFGDFKDVLIPGKLKQFVFDLHSGKLHREFHHGPDPTDTAPGEQAQDVASSPPESSFQKLAPSEYRYTLLRDRDEL
# B9: LAP2A_HUMAN (protein, UniProt P42166 2-694, looked up)
# Lamina-associated polypeptide …: PEFLEDPSVLTKDKLKSELVANNVTLPAGEQRKDVYVQLYLQHLTARNRPPLPAGTNSKGPPDFSSDEEREPTPVLGSGAAAAGRSRAAVGRKATKKTDKPRQEDKDDLDVTELTNEDLLDQLVKYGVNPGPIVGTTRKLYEKKLLKLREQGTESRSSTPLPTISSSAENTRQNGSNDSDRYSDNEEGKKKEHKKVKSTRDIVPFSELGTTPSGGGFFQGISFPEISTRPPLGSTELQAAKKVHTSKGDLPREPLVATNLPGRGQLQKLASERNLFISCKSSHDRCLEKSSSSSSQPEHSAMLVSTAASPSLIKETTTGYYKDIVENICGREKSGIQPLCPERSHISDQSPLSSKRKALEESESSQLISPPLAQAIRDYVNSLLVQGGVGSLPGTSNSMPPLDVENIQKRIDQSKFQETEFLSPPRKVPRLSEKSVEERDSGSFVAFQNIPGSELMSSFAKTVVSHSLTTLGLEVAKQSQHDKIDASELSFPFHESILKVIEEEWQQVDRQLPSLACKYPVSSREATQILSVPKVDDEILGFISEATPLGGIQAASTESCNQQLDLALCRAYEAAASALQIATHTAFVAKAMQADISQAAQILSSDPSRTHQALGILSKTYDAASYICEAAFDEVKMAAHTMGNATVGRRYLWLKDCKINLASKNKLASTPFKGGTLFGGEVCKVIKKRGNKH
# B10: IDHP_HUMAN (protein, UniProt P48735 40-452, looked up)
# Isocitrate dehydrogenase …: ADKRIKVAKPVVEMDGDEMTRIIWQFIKEKLILPHVDIQLKYFDLGLPNRDQTDDQVTIDSALATQKYSVAVKCATITPDEARVEEFKLKKMWKSPNGTIRNILGGTVFREPIICKNIPRLVPGWTKPITIGRHAHGDQYKATDFVADRAGTFKMVFTPKDGSGVKEWEVYNFPAGGVGMGMYNTDESISGFAHSCFQYAIQKKWPLYMSTKNTILKAYDGRFKDIFQEIFDKHYKTDFDKNKIWYEHRLIDDMVAQVLKSSGGFVWACKNYDGDVQSDILAQGFGSLGLMTSVLVCPDGKTIEAEAAHGTVTRHYREHQKGRPTSTNPIASIFAWTRGLEHRGKLDGNQDLIRFAQMLEKVCVETVESGAMTKDLAGCIHGLSNVKLNEHFLNTTDFLDTIKSNLDRALGRQ
# B11: CATA_HUMAN (protein, UniProt P04040 2-527, looked up)
# Catalase: ADSRDPASDQMQHWKEQRAAQKADVLTTGAGNPVGDKLNVITVGPRGPLLVQDVVFTDEMAHFDRERIPERVVHAKGAGAFGYFEVTHDITKYSKAKVFEHIGKKTPIAVRFSTVAGESGSADTVRDPRGFAVKFYTEDGNWDLVGNNTPIFFIRDPILFPSFIHSQKRNPQTHLKDPDMVWDFWSLRPESLHQVSFLFSDRGIPDGHRHMNGYGSHTFKLVNANGEAVYCKFHYKTDQGIKNLSVEDAARLSQEDPDYGIRDLFNAIATGKYPSWTFYIQVMTFNQAETFPFNPFDLTKVWPHKDYPLIPVGKLVLNRNPVNYFAEVEQIAFDPSNMPPGIEASPDKMLQGRLFAYPDTHRHRLGPNYLHIPVNCPYRARVANYQRDGPMCMQDNQGGAPNYYPNSFGAPEQQPSALEHSIQYSGEVRRFNTANDDNVTQVRAFYVNVLNEEQRKRLCENIAGHLKDAQIFIQKKAVKNFTEVHPDYGSHIQALLDKYNAEKPKNAIHTFVQSGSHLAAREKANL
# Test system: KDM4A-I71AzF
# Assay: CASI: photo-crosslinking with HEK293T cell extracts, StrepTactin enrichment and LC-MS/MS proteomics;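 note: lysates from HEK293T cells pretreated with a KDM4 inhibitor to raise proteome methylation, affinity-purified after ±UV, gel-resolved, trypsin-digested, with exclusive unique peptides per protein averaged per condition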
# Type: binding, human
# Conditions: sheet "Final results but with 0.01"
row,Molecule,Fold change (+UV/-UV)
1,B1,0.9333
2,B2,1.043
3,B3,1
4,B4,1
5,B5,0
6,B6,2
7,B7,2
8,B8,0.5
9,B9,0
10,B10,0.4
11,B11,2

# Reference: PMC10540216, “Activity Guided Azide-methyllysine Photo-trapping for Substrate Profiling of Lysine Demethylases” (Journal of the American Chemical Society, 2023)
